Target: the molecule itself
Assay: SDS-resistant high molecular mass complex on SDS-PAGE

B1: GABAA receptor γ2S(Q351X)^FLAG subunit (domain or fragment, human, UniProt P18507-1 40-389, looked up)
chain: QKSDDDYEDYASNKTWVLTPKVPEGDVTVILNNLLEGYDNKLRPDIGVKPTLIHTDMYVNSIGPVNAINMEYTIDIFFAQTWYDRRLKFNSTIKVLRLNSNMVGKIWIPDTFFRNSKKADAHWITTPNRMLRIWNDGRVLYTLRLTIDAECQLQLHNFPMDEHSCPLEFSSYGYPREEIVYQWKRSSVEVGDTRSWRLYQFSFVGLRNTTEVVKTTSGDYVVMSVYFDLSRRMGYFTIQTYIPCTLIVVLSWVSFWINKDAVPARTSLGITTVLTMTTLSTIARKSLPKVSYVTAMDLFVSVCFIFVFSALVEYGTLHYFVSNRKPSKDKDKKKKNPAPTIDIRPRSATI
  stoichiometry N: 2

From publication PMC2976503 (The Journal of neuroscience : the official journal of the …, 2010)
